US20120165211A1, “Human Antibodies Cross-Reacting With A Bacterial And A Self Antigen From Atherosclerotic Plaques” (priority 2007, published 2012)

What was measured:
purified OmpK36 = molecular target: T1, purified OmpK36 (Klebsiella pneumoniae, UniProt Q48473); assay: Western blot of purified OmpK36 with recombinant Fabs; type: binding; details: 400 ng OmpK36His per lane; Fabs at 10 μg/L; blocking PBS/BSA10%
T1 construct: made in house; host or cells: E. coli BL21 (DE3), pET28b (BamHI/XhoI cloning)
Procedure: 400 ng of purified OmpK36His was loaded on polyacrylamide gel (all lanes) and SDS-PAGE was performed. Proteins were blotted on PVDF membrane for 2 h at 350 mA. After blocking with PBS/BSA10% the membrane was cut to single lanes and each lane was incubated for 1 h with Fabs at 10 μg/L. After three washes membrane was incubated with anti-Human Light Chain K antibody (Sigma).

[1] = molecular target: T2, recombinant transgelin (rTAGLN-Origene cod: TP302448) (human, UniProt Q01995 1-201); assay: western blot on human transgelin (referred back to)
T2 construct: also called commercial transgelin 1; human transgelin
T2 sequence (Q01995 whole entry): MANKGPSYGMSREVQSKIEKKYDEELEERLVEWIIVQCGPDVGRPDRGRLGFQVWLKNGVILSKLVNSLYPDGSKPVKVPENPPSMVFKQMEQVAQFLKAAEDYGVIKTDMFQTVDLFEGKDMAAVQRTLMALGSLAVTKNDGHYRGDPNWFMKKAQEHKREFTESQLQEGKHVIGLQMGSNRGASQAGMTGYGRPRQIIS

[2] = molecular target: T3, recombinant transgelin (rTAGLN) (Homo sapiens, UniProt Q01995); type: binding; details: 4-500 ng rTAGLN per well
T3 construct: purchased Origene TP302448
T3 sequence (Q01995 whole entry): as above

ompK36 = molecular target: T4, ompK36 (Klebsiella pneumoniae, UniProt Q48473); assay: ELISA of 7816 IgG against coated ompK36; type: binding; details: full IgG1, 9 μg/ml; 8 μg OmpK36 coated; read at 450 nm
T4 construct: 6xHis (N); made in house; host or cells: E. coli BL21 (DE3), pET28b
Procedure: 8 μg of OmpK36 was coated on a 96 well ELISA plate in PBS, pH 5.0, overnight at 4° C. The day after, after three washes with PBS, the plate was blocked with PBS/BSA 1%, and purified 7816IgGs were added (9 μg/ml) to each well. After washing three timed with PBS/tween-20 0.1%, an anti-Human Fc antibody-HRP (SIGMA-Aldrich—diluted 1:8000), was added and incubated for 45-60 min. at 37° C. After five washes with PBS/Tween-20 0.1% 40 μL of TMB solution (Pierce) in every well was added and incubated for 15 min. at 37° C. After addition of 40 μl of Stop Solution (H2SO4 0.1 M) in every well the plates were read at 450 nm.

[3] = molecular target: T5, transgelin 1 (SM22) from coronary plaque lysate (human, UniProt Q01995 2-201); assay: 2D electrophoresis western blot of coronary plaque lysate with 7816FLAG, spots identified by MALDI-ToF
T5 construct: also called TAGLN; spots C1 and C2
T5 sequence (Q01995 2-201 limits assumed): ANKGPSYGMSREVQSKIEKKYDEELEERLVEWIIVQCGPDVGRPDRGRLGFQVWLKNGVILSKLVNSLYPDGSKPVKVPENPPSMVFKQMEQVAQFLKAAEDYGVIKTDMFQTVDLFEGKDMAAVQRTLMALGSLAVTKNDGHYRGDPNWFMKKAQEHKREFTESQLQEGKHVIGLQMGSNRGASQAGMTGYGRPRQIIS

[4] = molecular target: T2, recombinant transgelin (rTAGLN-Origene …); assay: western blot on recombinant transgelin

B1: Fab 248: human recombinant Fab; heavy chain SEQ ID NO:14, light chain SEQ ID NO:16 (antibody, listed as Homo sapiens)
heavy: LESGGGLVKPGGSLRLSCAASGFTFSDYYMSWIRQAPGKGLEFISYISSGGDTIHHADSVKGRFTISRDNAKKSLYLQMNSLRVEDTAVYYCACRGVWGQGT
light: SPATVSVSPGERATLSCRASQSISFHLAWYQQKPGQAPSLLIYGTSTRATGIPARFSGSGSGTEFTLTISSLQSEDSAVYYCQQYHNWPPLTFGGGT
reactivity with purified OmpK36 in western-blot (purified OmpK36): react with purified OmpK36

B2: Fab 7816 (Fab, V domains shown)
VH: LESGPGQVKPSQTLSLTCTVSGGSIGSGSYSWNWIRQPAGRGLEWIGRISDSGNTNFNPSLKSRVTMSVDTSKNQFALKLTSVTAADTATYFCARGRGILTGLFDYWGQGSLVSVSS
VL: SPDSLAVSPGGRATIKCASSQSVLDNSNHKNSLAWYQQKPGLPPKLLIYWASTRYSGVPDRFSGSGSGTDFTLTINNLQAADVAVYFCQQYYSTPWTFGQGTKVE
notes: also called Fab E7816
binding result [1]: binds

B3: IgG7816: heavy and light chains of Fab 7816 cloned in pAc-k-Fc vector, expressed as IgG in Sf9 insect cells (antibody, V domains shown)
VH: LESGPGQVKPSQTLSLTCTVSGGSIGSGSYSWNWIRQPAGRGLEWIGRISDSGNTNFNPSLKSRVTMSVDTSKNQFALKLTSVTAADTATYFCARGRGILTGLFDYWGQGSLVSVSSASTKGPSVFPLAPSSKSTSGGTAALGCLVKD
VL: B2 VL
binding to human transgelin in Western blot [2]: positive band is visible | binding to ompK36 in ELISA (ompK36): binds specifically to ompK36

B4: 7816Fab-FLAG (Fab, V domains shown)
VH: B2 VH
VL: B2 VL
binding result [3]: binds

B5: IgG7816 (antibody, V domains shown)
VH: B2 VH
VL: B2 VL
binding result [4]: binds

B6: Fab1630: human recombinant Fab from plaque 12 library (ID12LIB); HC SEQ ID NO:10, LC SEQ ID NO:12 (antibody, listed as Homo sapiens)
heavy: GGGLVKPGGSLRLSCTASGFTFSNGWMSWVRQAPGKGLEWVGRIRSNPDGGTTDYAAPFKGRFTISRDDSKNTLFLQVTSLKTEDTGVYYCITDRGDWKWGVPRDLTYWGQGTLVTVSSASTKGPSVFPLAPSSKSTSGGTAALGCLVKDYFPEPVTV
light: AMAELTQSPDTLSLSPGERATLSCRASQSVDSNYLAWFQQKPGQAPRLLIYGAYSRATGIPDRFSGSGSGTDFTLTISRLEPEDFVVYYCQQYLSPPITFGQGTRLETKRTVAAPSVFIFPPSD
reactivity with purified OmpK36 in western-blot (purified OmpK36): react with purified OmpK36 | binding to human transgelin in Western blot [2]: recognize human transgelin

B7: Fab 1630 (Fab, V domains shown)
VH: GGGLVKPGGSLRLSCTASGFTFSNGWMSWVRQAPGKGLEWVGRIRSNPDGGTTDYAAPFKGRFTISRDDSKNTLFLQVTSLKTEDTGVYYCITDRGDWKWGVPRDLTYWGQGTLVTVSS
VL: MAELTQSPDTLSLSPGERATLSCRASQSVDSNYLAWFQQKPGQAPRLLIYGAYSRATGIPDRFSGSGSGTDFTLTISRLEPEDFVVYYCQQYLSPPITFGQGTRLETKR
binding result [1]: binds
